In US20080261241A1, “Targeted ubiquitination of proteins and screening methods using a new class of ubiquitin ligase proteins” (INSTITUT PASTEUR, priority 2007, published 2008):
Peptide text beside a SMILES is read from it. * marks the point of attachment. Cbz = O=C(OCc1ccccc1)*

What was measured:
[1] = tested on: proteasome; assay: Proteasome inhibition: Ste7 disappearance in MG132-permeable erg6 mutant; format: cell-based, Saccharomyces cerevisiae; conditions: MG132 100 μM, 2 h
Procedure: To test if the IpaH-mediated disappearance of Ste7 required proteasome function, a yeast strain carrying the cim5-1 allele encoding a component of the 26-S proteasome that is functional at 25° C. but not at 37° C. (Ghislain et al., 1993) was used. […] (FIG. 3A). […] Thus, the disappearance of Ste7 promoted by IpaH9.8 is proteasome-dependent.
Standard media and techniques were used for transformation, maintenance, and growth of yeast (Guthrie C, 1991). Halo assays were performed as described (Hoffman et al., 2002) using disks impregnated with 15 μg of α-factor. erg6 ? yeast were transformed with plasmids encoding IpaH9.8 or IpaH9.8-C337A and grown in selective media containing 1% raffinose to mid log phase. Following addition of MG132 (100 μM) and galactose (2%), cultures were incubated for 2 h and cell extracts were prepared as described (Wang et al., 2003). β-Galactosidase assays were performed as described (Guarente, 1983).

[2] = tested on: sst2Δ cells; assay: Growth of sst2Δ yeast in the presence of pheromone; format: cell-based, Saccharomyces cerevisiae; conditions: galactose-induced production, α-factor plates
[3] = target: His-tagged UbcH5B, P62837
His-tagged UbcH5B, P62837, sequence (P62837 whole entry, looked up): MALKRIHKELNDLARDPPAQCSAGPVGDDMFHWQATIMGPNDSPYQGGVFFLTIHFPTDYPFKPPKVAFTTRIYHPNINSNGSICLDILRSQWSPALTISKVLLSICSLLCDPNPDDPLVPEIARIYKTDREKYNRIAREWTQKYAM

CC(C)C[C@@H](C=O)NC(=O)[C@H](CC(C)C)NC(=O)[C@H](CC(C)C)NC(=O)OCc1ccccc1 [MG132] (Cbz-Leu-Leu-Leu-aldehyde)
disappearance of Ste7 provoked by IpaH9.8 [1]: prevented the disappearance of Ste7

B1: IpaH7.8: another IpaH family member from Shigella (protein, UniProt P18014 1-565, looked up)
E3 ubiquitin-protein ligase …: MFSVNNTHSSVSCSPSINSNSTSNEHYLRILTEWEKNSSPGEERGIAFNRLSQCFQNQEAVLNLSDLNLTSLPELPKHISALIVENNKLTSLPKLPAFLKELNADNNRLSVIPELPESLTTLSVRSNQLENLPVLPNHLTSLFVENNRLYNLPALPEKLKFLHVYYNRLTTLPDLPDKLEILCAQRNNLVTFPQFSDRNNIRQKEYYFHFNQITTLPESFSQLDSSYRINISGNPLSTRVLQSLQRLTSSPDYHGPQIYFSMSDGQQNTLHRPLADAVTAWFPENKQSDVSQIWHAFEHEEHANTFSAFLDRLSDTVSARNTSGFREQVAAWLEKLSASAELRQQSFAVAADATESCEDRVALTWNNLRKTLLVHQASEGLFDNDTGALLSLGREMFRLEILEDIARDKVRTLHFVDEIEVYLAFQTMLAEKLQLSTAVKEMRFYGVSGVTANDLRTAEAMVRSREENEFTDWFSLWGPWHAVLKRTEADRWAQAEEQKYEMLENEYSQRVADRLKASGLSGDADAEREAGAQVMRETEQQIYRQLTDEVLALRLSENGSRLHHS
growth of sst2Δ cells in the presence of pheromone [2]: rescued the pheromone-induced growth arrest of sst2Δ cells

B2: GST-IpaH9.8 (protein)
chain: MLPINNNFSLPQNSFYNTISGTYADYFSAWDKWEKQALPGEERDEAVSRLKECLINNSDELRLDRLNLSSLPDNLPAQITLLNVSYNQLTNLPELPVTLKKLYSASNKLSELPVLPPALESLQVQHNELENLPALPDSLLTMNISYNEIVSLPSLPQALKNLRATRNFLTELPAFSEGNNPVVREYFFDRNQISHIPESILNLRNECSIHISDNPLSSHALQALQRLTSSPDYHGPRIYFSMSDGQQNTLHRPLADAVTAWFPENKQSDVSQIWHAFEHEEHANTFSAFLDRLSDTVSARNTSGFREQVAAWLEKLSASAELRQQSFAVAADATESCEDRVALTWNNLRKTLLVHQASEGLFDNDTGALLSLGREMFRLEILEDIARDKVRTLHFVDEIEVYLAFQTMLAEKLQLSTAVKEMRFYGVSGVTANDLRTAEAMVRSREENEFTDWFSLWGPWHAVLKRTEADRWAQAEEQKYEMLENEYPQRVADRLKASGLSGDADAEREAGAQVMRETEQQIYRQLTDEVLALRLSENGSQLHHS
removal of ubiquitin from ubiquitinated UbcH5B, immunoblot with streptavidin-peroxidase [3]: after ubiquitination of UbcH5B, addition of GST-IpaH9.8 to the reaction mixture promoted the removal of ubiquitin from UbcH5B

B3: GST-SspH1 (protein)
chain: EFMLPINNNFSLPQNSFYNTISGTYADYFSAWDKWEKQALPGEERDEAVSRLKECLINNSDELRLDRLNLSSLPDNLPAQITLLNVSYNQLTNLPELPVTLKKLYSASNKLSELPVLPPALESLQVQHNELENLPALPDSLLTMNISYNEIVSLPSLPQALKNLRATRNFLTELPAFSEGNNPVVREYFFDRNQISHIPESILNLRNECSIHISDNPLSSHALQALQRLTSSPDYHGPRIYFSMSDGQQNTLHRPLADAVTAWFPENKQSDVSQIWHAFEHEEHANTFSAFLDRLSDTVSARNTSGFREQVAAWLEKLSASAELRQQSFAVAADATESCEDRVALTWNNLRKTLLVHQASEGLFDNDTGALLSLGREMFRLEILEDIARDKVRTLHFVDEIEVYLAFQTMLAEKLQLSTAVKEMRFYGVSGVTANDLRTAEAMVRSREENEFTDWFSLWGPWHAVLKRTEADRWAQAEEQKYEMLENEYPQRVADRLKASGLSGDADAEREAGAQVMRETEQQIYRQLTDEVLALRLFENGSQLHHS
removal of ubiquitin from ubiquitinated UbcH5B [3]: SspH1 was endowed with the activities (i) to remove ubiquitin from ubiquitinated UbcH5B
